Consider ten molecules from patent US20090297535A1 (Ablynx, published 2009).

Like-named read-outs stand apart in the source and are kept apart here.

In assay [1] the target is T1, recombinant human IL6 (human, UniProt P05231 30-212). Put plainly: cell-based or functional assay.
For assay [2], the target named is T1, recombinant human IL6. The assay can be described thus: SPR, Biacore 3000; IL6 amine-coupled on CM5 chip, periplasmic extract injected. Here is the method: Off-rate analysis of Nanobodies binding to IL6 was done by surface plasmon resonance on a Biacore 3000 instrument. Recombinant human IL6 was covalently bound to a CM5 sensor chip via amine coupling at a density of ˜500 RU. Remaining reactive groups were inactivated. Periplasmic extracts prepared from E. coli cells expressing anti-IL6 Nanobodies were diluted 10 or 15-fold and injected for 4 min to allow for binding to IL6 immobilized on the chip. Buffer without Nanobody was sent over the chip for 30 min to allow for spontaneous dissociation of bound Nanobody. The dissociation phase was used to calculate the koff values for each individual Nanobody (table B-1).
(SPR reads the build-up and loss of mass on a sensor chip optically.)

Assay [3] concerns the target T1, recombinant human IL6. Put plainly: Alphascreen competition: Nanobody titrated against 3 nM biotinylated human IL6; blocked partner IL6R (1 nM) captured on acceptor beads coated with anti-IL6R MAb BN-12; streptavidin donor beads; readout cps. As for the experimental part: Purified samples of Nanobodies PMP6B6, PMP7G5, PMP7G9 and PMP7G4 were analyzed in Alphascreen for their ability to inhibit the interaction between IL6 and IL6R. In this assay, various concentrations of anti-IL6 Nanobodies ranging from 1 uM to 10 pM were incubated with 3 nM biotinylated human IL6 for 15 min in a 384-wells plate. Subsequently a mixture of IL6R (1 nM) and acceptor beads (20 ug/ml) coated with anti-IL6R MAb BN-12 (Diaclone) were added and incubated for 30 min. Finally, streptavidin coated donor beads (20 ug/ml) were added. After 1 hour of incubation plates were read on the Envison Alphascreen reader (PerkinElmer). All experiments were performed in duplicate.

Assay [4] concerns the target T1, recombinant human IL6. The assay can be described thus: cell-based or functional assay. The source holds these as a separate data set.

B1: PMP21E7 (VHH)
VHH: AVQLVESGGGLVQAGGSLRLSSVVSGGTFSSYPIAWFRQPPGKEREFVAAISWRGGNTYYADSVKGRFTISRDNAKNTVYLQMNSLKPEDTAVYYSAAERAGVLLTKVPEGYDYWGQGTQVTVSS
notes: Monovalent Nanobody
B1: the “IC50, inhibition of proliferation of the murine hybridoma cell line B9 (B9 assay, cell proliferation normalized)” value with recombinant human IL6 [1] stood at 50 pM. Also, the koff – broadly, a measure of how fast the partners let go of each other – in the assay with recombinant human IL6 [2] was 0.000772 s⁻¹.

B2: PMP7G9 (VHH)
VHH: QVQLVESGGGLVQPGGSLRLSCAASGFSLDYYGVGWFRQAPGKEREGVSCISSSDGDTYYADSVKGRFTISRDNAKNTVYLQMNSLKPEDTAVYYCATDLSDYGVCSRWPSPYDYWGQGTQVTVSS
notes: Monovalent Nanobody
Consider B2, for which, in the assay with recombinant human IL6 [3], the IC50 (commonly the concentration that gives 50% inhibition) is 3.4 nM. In addition, the koff in the assay with recombinant human IL6 [2] amounted to 0.00287 s⁻¹. Besides, the “IC50, inhibition of proliferation of the murine hybridoma cell line B9 (B9 assay, cell proliferation normalized)” value with recombinant human IL6 [4] amounted to 385 pM.

B3: PMP6B6 (VHH)
VHH: QVQLVESAGGLVQPGGSLRLSCAASGIIFSINAMGWYRQAPGKRRELVADIMPYGSTEYADSVKGRFTISRDNAKNTVYLQMNSLKPEDTAVYYCHSYDPRGDDYWGQGTQVTVSS
notes: Monovalent Nanobody
On to B3, for which the IC50 with recombinant human IL6 [3] is 2 nM. In the assay with recombinant human IL6 [2], the off-rate constant (koff) amounted to 0.000433 s⁻¹. The “IC50, inhibition of proliferation of the murine hybridoma cell line B9 (B9 assay, cell proliferation normalized)” value in the assay with recombinant human IL6 [4] was 3 pM.

B4: PMP7G4 (VHH)
VHH: AVQLVESGGGLVQPGGSLRLSCAASGSIFSRLAMDWYRQAPGKQRELVASISRSGTTMAADSVKGRFTISRDNAENMVYLQMNSLKPEDTAVYVCMAFDGYSGSDYWGRGTQVTVSS
notes: Monovalent Nanobody
For the molecule B4, in the assay with recombinant human IL6 [3], the IC50 was 2.5 nM. Also, the koff in the assay with recombinant human IL6 [2] came out at 0.00208 s⁻¹. Also, the “IC50, inhibition of proliferation of the murine hybridoma cell line B9 (B9 assay, cell proliferation normalized)” value with recombinant human IL6 [4] came out at 421 pM.

B5: PMP21H1 (VHH)
VHH: QVQLVESGGGLVQTGGSLRLSCAASGSTFSKHHATGWFRQAPGKEREFVAALNWSGGNTYYTDSVKGRFTISRDNAQNTVYLQMNSLKPEDTAVYYCAAGSYVFYFTVRDQYDYWGQGTQVTVSS
notes: Monovalent Nanobody
Turning to B5, the “IC50, inhibition of proliferation of the murine hybridoma cell line B9 (B9 assay, cell proliferation normalized)” value in the assay with recombinant human IL6 [1] is 2580 pM. The dissociation rate constant (koff) with recombinant human IL6 [2] was found to be 0.00124 s⁻¹.

B6: PMP6B12 (VHH)
VHH: AVQLVESGGGLVQPGGSLRLSCAASGFTLAYYAIGWFRQAPGKEREGVSCISSSVGTTYYSDSVKGRFTISRDNAKNTVYLQMNSLKPEDTAVYYCVRSSWFDCGVQGRDLGNEYDYRGQGTQVTVSS
notes: Monovalent Nanobody
Consider B6, for which the koff with recombinant human IL6 [2] stood at 0.00027 s⁻¹. Besides, the “IC50, inhibition of proliferation of the murine hybridoma cell line B9 (B9 assay, cell proliferation normalized)” value in the assay with recombinant human IL6 [4] stood at 28 pM.

B7: PMP17C4 (VHH)
VHH: AVQLVDSGGGLVQAGDSLRLSCAASGRTFSNYAMAWFRQAPGKEREFVAVISYAGGRTYYADSVKGRFTISRDNAKNTVYLQMNSLKPEDTAVYYCAAVDSPLIATHPRGYDYWGQGTQVTVSS
notes: Monovalent Nanobody
On to B7, for which, in the assay with recombinant human IL6 [1], the “IC50, inhibition of proliferation of the murine hybridoma cell line B9 (B9 assay, cell proliferation normalized)” value was determined as 64 pM. Besides, in the assay with recombinant human IL6 [2], the koff worked out at 0.00137 s⁻¹.

B8: PMP13F12 (VHH)
VHH: AVQLVDSGGGLVQAGGSLRLSCAASGRTFSSSPMGWFRQAPGKEREFVAAISGRSGNTYYADSVKGRFTISRDNAKNTVYLQMNSLKPEDTAVYYCAAERVGLLLTVVAEGYDYWGQGTQVTVSS
notes: Monovalent Nanobody
For the molecule B8, in the assay with recombinant human IL6 [1], the “IC50, inhibition of proliferation of the murine hybridoma cell line B9 (B9 assay, cell proliferation normalized)” value was 8 pM. For the same molecule, in the assay with recombinant human IL6 [2], the koff is 3.66e-05 s⁻¹.

B9: PMP6E10 (VHH)
VHH: QVKLEESGGGLVQAGGSLRLSCVVSGRTFSPYTIAWFRQAPGKEREFVTTIIGSDRSTDLDGDTYYADSVRGRFTISRNDAKNTVFLQMSSLKPEDTAVYYCALTGKGYVFTPNEYDYWGQGTQVTVSS
notes: Monovalent Nanobody
B9: the koff with recombinant human IL6 [2] turned out to be 0.000545 s⁻¹. Besides, the “IC50, inhibition of proliferation of the murine hybridoma cell line B9 (B9 assay, cell proliferation normalized)” value in the assay with recombinant human IL6 [4] was found to be 1070 pM.

B10: PMP7G5 (VHH)
VHH: QVKLEESGGGLVQPGGSLRLSCAASGSISRFNIMGWYRQAPGKQRELVADITNGGTTMYADSVKGRFTISRDNTKNTVYLQMNSLKPEDTAVYYCHTYYPTTGFDDWGQGAQVTVSS
notes: Monovalent Nanobody
For the molecule B10, the IC50 in the assay with recombinant human IL6 [3] turned out to be 6.1 nM. In addition, in the assay with recombinant human IL6 [2], the koff amounted to 0.000412 s⁻¹. Further, the “IC50, inhibition of proliferation of the murine hybridoma cell line B9 (B9 assay, cell proliferation normalized)” value with recombinant human IL6 [4] was 17 pM.
